Reference: patent publication US20250262210A1 (TRUSTEES OF COLUMBIA UNIVERSITY IN THE CITY OF NEW YORK, published 2025)

How the values were obtained:
Assay in all cases: IP/MS, LZTR1 wild type-FLAG, U87
MED24 = target: T1, MED24 (human, UniProt O75448 1-989, limits assumed)
T1 sequence (looked up): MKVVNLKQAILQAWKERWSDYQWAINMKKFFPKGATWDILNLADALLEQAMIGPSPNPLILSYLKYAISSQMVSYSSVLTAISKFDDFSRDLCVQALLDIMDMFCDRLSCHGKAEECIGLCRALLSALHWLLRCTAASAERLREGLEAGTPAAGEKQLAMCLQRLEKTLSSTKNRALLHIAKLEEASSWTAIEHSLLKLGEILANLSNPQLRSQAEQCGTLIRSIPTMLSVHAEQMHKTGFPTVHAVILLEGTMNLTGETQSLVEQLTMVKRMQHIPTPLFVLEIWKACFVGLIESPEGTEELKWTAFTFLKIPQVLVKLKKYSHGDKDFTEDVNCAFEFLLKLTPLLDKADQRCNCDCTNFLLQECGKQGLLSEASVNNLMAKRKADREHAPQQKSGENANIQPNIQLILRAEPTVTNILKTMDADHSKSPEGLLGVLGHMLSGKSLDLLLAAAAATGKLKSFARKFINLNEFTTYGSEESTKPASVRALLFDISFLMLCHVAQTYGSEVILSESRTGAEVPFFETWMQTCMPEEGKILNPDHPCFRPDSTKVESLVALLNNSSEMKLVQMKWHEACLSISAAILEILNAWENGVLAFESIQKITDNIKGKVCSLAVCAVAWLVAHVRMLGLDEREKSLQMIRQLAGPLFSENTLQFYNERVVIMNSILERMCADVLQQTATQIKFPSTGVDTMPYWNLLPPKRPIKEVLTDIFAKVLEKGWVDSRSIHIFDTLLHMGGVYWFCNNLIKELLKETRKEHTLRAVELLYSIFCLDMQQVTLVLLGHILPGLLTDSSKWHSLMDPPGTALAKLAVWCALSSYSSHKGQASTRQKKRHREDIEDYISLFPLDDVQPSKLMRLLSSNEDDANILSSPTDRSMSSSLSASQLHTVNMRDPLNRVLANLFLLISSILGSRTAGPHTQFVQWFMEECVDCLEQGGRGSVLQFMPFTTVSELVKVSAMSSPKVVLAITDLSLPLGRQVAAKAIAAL
Summary of the method: (§1)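 Gel slices were reduced with 5 mM DTT, alkylated with 11 mM IAA and digested overnight at 37° C. with trypsin. Peptides were analysed on an Orbitrap Fusion Tribrid by LC-MS/MS.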

MTR = MTR (human, UniProt Q99707 1-1265, limits assumed)
MTR, sequence (Q99707 whole entry): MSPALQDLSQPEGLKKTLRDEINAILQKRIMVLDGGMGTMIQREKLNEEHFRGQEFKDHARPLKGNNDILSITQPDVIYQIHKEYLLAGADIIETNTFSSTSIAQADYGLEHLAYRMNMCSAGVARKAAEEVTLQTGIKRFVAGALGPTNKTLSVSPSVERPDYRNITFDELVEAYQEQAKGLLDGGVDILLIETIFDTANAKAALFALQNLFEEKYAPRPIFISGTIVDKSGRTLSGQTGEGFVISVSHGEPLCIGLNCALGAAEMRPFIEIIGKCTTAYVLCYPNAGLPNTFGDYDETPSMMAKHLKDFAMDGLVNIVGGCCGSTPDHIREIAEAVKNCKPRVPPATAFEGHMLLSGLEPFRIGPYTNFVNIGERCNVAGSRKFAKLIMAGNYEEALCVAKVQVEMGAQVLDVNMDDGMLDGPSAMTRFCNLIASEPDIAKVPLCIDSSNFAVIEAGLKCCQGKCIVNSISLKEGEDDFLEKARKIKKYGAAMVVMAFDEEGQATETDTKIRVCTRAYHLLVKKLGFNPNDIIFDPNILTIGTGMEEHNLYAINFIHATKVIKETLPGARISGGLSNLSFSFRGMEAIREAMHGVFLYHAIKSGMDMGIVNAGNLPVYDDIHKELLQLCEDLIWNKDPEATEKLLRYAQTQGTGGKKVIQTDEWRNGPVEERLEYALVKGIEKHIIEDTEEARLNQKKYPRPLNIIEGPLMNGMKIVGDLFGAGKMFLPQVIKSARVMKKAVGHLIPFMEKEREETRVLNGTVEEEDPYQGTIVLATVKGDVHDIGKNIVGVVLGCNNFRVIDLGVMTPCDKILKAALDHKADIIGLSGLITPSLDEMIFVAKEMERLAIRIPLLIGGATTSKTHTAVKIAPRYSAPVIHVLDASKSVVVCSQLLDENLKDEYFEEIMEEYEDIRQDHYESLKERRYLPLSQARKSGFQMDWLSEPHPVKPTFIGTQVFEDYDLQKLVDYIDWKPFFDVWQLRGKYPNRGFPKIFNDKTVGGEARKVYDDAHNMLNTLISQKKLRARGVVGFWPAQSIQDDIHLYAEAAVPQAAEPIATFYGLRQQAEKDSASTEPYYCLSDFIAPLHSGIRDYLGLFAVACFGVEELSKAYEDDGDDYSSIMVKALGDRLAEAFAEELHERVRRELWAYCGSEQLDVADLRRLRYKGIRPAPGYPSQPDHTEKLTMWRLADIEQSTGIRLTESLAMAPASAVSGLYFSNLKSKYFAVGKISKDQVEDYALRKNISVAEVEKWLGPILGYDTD
Summary of the method: as §1

PARP14 = PARP14 (human, UniProt Q460N5 1-1801, limits assumed)
PARP14, sequence (Q460N5 whole entry): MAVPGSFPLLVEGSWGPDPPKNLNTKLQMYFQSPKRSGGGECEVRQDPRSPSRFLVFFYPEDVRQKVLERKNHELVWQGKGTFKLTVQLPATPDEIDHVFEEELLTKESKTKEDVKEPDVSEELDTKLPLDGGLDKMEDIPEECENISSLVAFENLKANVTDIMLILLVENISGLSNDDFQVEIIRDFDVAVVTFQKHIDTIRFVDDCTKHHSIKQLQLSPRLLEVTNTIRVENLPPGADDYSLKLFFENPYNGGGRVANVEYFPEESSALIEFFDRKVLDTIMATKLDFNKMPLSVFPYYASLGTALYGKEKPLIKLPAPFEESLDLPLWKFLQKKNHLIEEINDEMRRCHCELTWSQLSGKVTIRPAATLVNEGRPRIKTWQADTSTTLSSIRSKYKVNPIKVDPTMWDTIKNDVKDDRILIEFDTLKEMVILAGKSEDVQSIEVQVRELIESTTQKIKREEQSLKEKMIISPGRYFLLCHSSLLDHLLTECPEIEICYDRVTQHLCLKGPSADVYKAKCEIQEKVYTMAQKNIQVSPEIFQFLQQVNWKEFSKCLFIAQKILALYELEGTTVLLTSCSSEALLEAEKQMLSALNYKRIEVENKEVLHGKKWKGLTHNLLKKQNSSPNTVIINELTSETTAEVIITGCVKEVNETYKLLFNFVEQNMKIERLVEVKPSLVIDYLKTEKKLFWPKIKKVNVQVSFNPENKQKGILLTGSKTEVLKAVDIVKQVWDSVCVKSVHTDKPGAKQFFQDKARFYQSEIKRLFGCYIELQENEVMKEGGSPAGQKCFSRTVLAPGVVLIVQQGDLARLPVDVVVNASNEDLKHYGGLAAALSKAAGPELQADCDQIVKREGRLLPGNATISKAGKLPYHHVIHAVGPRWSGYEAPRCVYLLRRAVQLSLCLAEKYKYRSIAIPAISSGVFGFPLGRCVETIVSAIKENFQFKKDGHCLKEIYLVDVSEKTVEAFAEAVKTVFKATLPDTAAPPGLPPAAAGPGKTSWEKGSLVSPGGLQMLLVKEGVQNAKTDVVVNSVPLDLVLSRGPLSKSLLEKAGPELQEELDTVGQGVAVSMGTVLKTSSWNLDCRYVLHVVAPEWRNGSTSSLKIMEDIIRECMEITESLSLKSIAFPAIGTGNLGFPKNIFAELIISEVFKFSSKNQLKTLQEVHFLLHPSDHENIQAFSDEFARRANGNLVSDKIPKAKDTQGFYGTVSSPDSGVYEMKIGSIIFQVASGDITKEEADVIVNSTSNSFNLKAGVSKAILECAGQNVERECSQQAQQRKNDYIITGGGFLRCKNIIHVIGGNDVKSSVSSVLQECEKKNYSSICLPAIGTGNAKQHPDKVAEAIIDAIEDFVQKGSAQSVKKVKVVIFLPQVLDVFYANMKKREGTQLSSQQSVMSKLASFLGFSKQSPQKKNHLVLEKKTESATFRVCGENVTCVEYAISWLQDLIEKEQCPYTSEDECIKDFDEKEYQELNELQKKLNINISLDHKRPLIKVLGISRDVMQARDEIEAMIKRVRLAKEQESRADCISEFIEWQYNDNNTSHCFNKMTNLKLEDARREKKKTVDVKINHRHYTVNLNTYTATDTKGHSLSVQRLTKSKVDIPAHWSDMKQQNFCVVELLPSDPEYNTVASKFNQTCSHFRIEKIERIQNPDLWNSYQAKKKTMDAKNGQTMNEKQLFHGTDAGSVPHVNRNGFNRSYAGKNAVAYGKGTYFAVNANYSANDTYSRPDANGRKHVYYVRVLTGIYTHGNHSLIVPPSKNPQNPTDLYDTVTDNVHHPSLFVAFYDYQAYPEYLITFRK
Summary of the method: as §1

BUB1 = BUB1 (human, UniProt O43683 1-1085, limits assumed)
BUB1, sequence (O43683 whole entry): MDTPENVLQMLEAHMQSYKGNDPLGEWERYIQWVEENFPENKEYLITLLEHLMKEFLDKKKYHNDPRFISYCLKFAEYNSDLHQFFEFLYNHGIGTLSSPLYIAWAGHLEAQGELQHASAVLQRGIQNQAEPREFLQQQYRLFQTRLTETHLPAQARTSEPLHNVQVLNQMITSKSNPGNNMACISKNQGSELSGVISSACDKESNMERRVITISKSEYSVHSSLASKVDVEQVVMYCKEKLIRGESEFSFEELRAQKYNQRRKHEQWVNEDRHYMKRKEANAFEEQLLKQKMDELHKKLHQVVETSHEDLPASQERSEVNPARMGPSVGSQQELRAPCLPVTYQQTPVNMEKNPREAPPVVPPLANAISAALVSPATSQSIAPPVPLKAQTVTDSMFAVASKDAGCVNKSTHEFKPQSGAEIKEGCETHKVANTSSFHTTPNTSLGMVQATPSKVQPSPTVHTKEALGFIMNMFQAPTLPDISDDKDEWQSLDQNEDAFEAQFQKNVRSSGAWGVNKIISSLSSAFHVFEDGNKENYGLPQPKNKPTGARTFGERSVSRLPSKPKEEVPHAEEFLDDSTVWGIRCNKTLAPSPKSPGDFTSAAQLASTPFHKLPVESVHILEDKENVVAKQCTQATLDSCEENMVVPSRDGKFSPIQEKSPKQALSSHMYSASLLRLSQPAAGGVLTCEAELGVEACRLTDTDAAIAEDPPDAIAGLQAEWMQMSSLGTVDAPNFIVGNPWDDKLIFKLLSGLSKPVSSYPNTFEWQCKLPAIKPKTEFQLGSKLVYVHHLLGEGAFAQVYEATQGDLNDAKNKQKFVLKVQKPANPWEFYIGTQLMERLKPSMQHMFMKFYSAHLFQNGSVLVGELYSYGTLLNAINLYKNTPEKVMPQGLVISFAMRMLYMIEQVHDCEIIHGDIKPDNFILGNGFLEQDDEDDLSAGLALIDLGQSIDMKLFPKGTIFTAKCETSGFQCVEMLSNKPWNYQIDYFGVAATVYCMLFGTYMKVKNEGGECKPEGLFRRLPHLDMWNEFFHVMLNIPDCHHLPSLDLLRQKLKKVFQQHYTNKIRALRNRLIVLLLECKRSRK
Summary of the method: as §1

POLR1A = POLR1A (human, UniProt O95602 1-1720)
Summary of the method: as §1

Measured: binding result

B1: LZTR1-FLAG (other, human, UniProt Q8N653 1-840, looked up)
chain: MAGPGSTGGQIGAAALAGGARSKVAPSVDFDHSCSDSVEYLTLNFGPFETVHRWRRLPPCDEFVGARRSKHTVVAYKDAIYVFGGDNGKTMLNDLLRFDVKDCSWCRAFTTGTPPAPRYHHSAVVYGSSMFVFGGYTGDIYSNSNLKNKNDLFEYKFATGQWTEWKIEGRLPVARSAHGATVYSDKLWIFAGYDGNARLNDMWTIGLQDRELTCWEEVAQSGEIPPSCCNFPVAVCRDKMFVFSGQSGAKITNNLFQFEFKDKTWTRIPTEHLLRGSPPPPQRRYGHTMVAFDRHLYVFGGAADNTLPNELHCYDVDFQTWEVVQPSSDSEVGGAEVPERACASEEVPTLTYEERVGFKKSRDVFGLDFGTTSAKQPTQPASELPSGRLFHAAAVISDAMYIFGGTVDNNIRSGEMYRFQFSCYPKCTLHEDYGRLWESRQFCDVEFVLGEKEECVQGHVAIVTARSRWLRRKITQARERLAQKLEQEAAPVPREAPGVAAGGARPPLLHVAIREAEARPFEVLMQFLYTDKIKYPRKGHVEDVLLIMDVYKLALSFQLCRLEQLCRQYIEASVDLQNVLVVCESAARLQLSQLKEHCLNFVVKESHFNQVIMMKEFERLSSPLIVEIVRRKQQPPPRTPLDQPVDIGTSLIQDMKAYLEGAGAEFCDITLLLDGHPRPAHKAILAARSSYFEAMFRSFMPEDGQVNISIGEMVPSRQAFESMLRYIYYGEVNMPPEDSLYLFAAPYYYGFYNNRLQAYCKQNLEMNVTVQNVLQILEAADKTQALDMKRHCLHIIVHQFTKVSKLPTLRSLSQQLLLDIIDSLASHISDKQCAELGADI
notes: Expressed in HEK 293T, HeLa or U87 cells; used as cell lysate; also called LZTR1 wild type-FLAG; LZTR1 WT; not shown: FLAG tag at the C-terminus
binds: MED24 | MTR | PARP14 | BUB1 | POLR1A
